Experimental data: the supplement of paper PMC9112550, “Optimization of the antimicrobial peptide Bac7 by deep mutational scanning” (BMC Biology, 2022)

Tested on: Escherichia coli TOP10
Test: shrunken log2 fold change of peptide-encoding DNA abundance (4.5 h post-induction vs induction); higher = less antimicrobial activity (less host growth inhibition)
Conditions: time post-induction: 4.5 h; library: site-saturation at positions 5, 18, 19, 20
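Also: peptides expressed intracellularly from a pBAD plasmid library in pooled LB shake-flask culture, induced with 0.3% L-arabinose, DNA abundance read by NGS, three biological replicates, DESeq2 with apeglm shrinkage.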

| Sequence | shrunken log2 fold change |
| --- | --- |
| RRIRLRPPRLPRPRPRPFLDPRP | -0.228 |
| RRIRERPPRLPRPRPRPLLEPRP | 0.105 |
| RRIRFRPPRLPRPRPRPWPIPRP | -0.0205 |
| RRIRMRPPRLPRPRPRPNCMPRP | 0.183 |
| RRIRMRPPRLPRPRPRPTRNPRP | 0.212 |
| RRIRSRPPRLPRPRPRPHWNPRP | -0.429 |
| RRIRVRPPRLPRPRPRPMMTPRP | 0.0496 |
| RRIRWRPPRLPRPRPRPIYHPRP | -0.305 |
| RRIRFRPPRLPRPRPRPKFQPRP | -0.14 |
| RRIRKRPPRLPRPRPRPIIHPRP | -0.0792 |
| RRIRHRPPRLPRPRPRPNVQPRP | -1.87 |
| RRIRNRPPRLPRPRPRPTLHPRP | -0.0665 |
| RRIRGRPPRLPRPRPRPLINPRP | 0.116 |
| RRIRCRPPRLPRPRPRPQNMPRP | -0.78 |
| RRIRQRPPRLPRPRPRPKSSPRP | 0.0321 |
| RRIRMRPPRLPRPRPRPCEPPRP | 0.234 |
| RRIRNRPPRLPRPRPRPHIQPRP | 2.34 |
| RRIRSRPPRLPRPRPRPPKNPRP | 0.223 |
| RRIRTRPPRLPRPRPRPPDFPRP | 0.0547 |
| RRIRSRPPRLPRPRPRPSFNPRP | -0.644 |
| RRIRLRPPRLPRPRPRPDEPPRP | -0.0538 |
| RRIRWRPPRLPRPRPRPLKAPRP | 0.749 |
| RRIRYRPPRLPRPRPRPLGQPRP | -0.261 |
| RRIRNRPPRLPRPRPRPCNEPRP | -0.0138 |
| RRIRNRPPRLPRPRPRPKCFPRP | -0.192 |

| Sequence | shrunken log2 fold change |
| --- | --- |
| RRIRMRPPRLPRPRPRPDVKPRP | 0.343 |
| RRIRRRPPRLPRPRPRPPWGPRP | 0.0337 |
| RRIRQRPPRLPRPRPRPHTVPRP | -0.484 |
| RRIRPRPPRLPRPRPRPKSGPRP | 0.356 |
| RRIRERPPRLPRPRPRPIHFPRP | -0.00865 |
| RRIRHRPPRLPRPRPRPAAYPRP | -0.206 |
| RRIRYRPPRLPRPRPRPAALPRP | -0.478 |
| RRIRHRPPRLPRPRPRPAKGPRP | 0.0449 |
| RRIRNRPPRLPRPRPRPKLHPRP | -0.0882 |
| RRIRVRPPRLPRPRPRPLVIPRP | -0.429 |
| RRIRNRPPRLPRPRPRPRYVPRP | -0.265 |
| RRIRMRPPRLPRPRPRPPYEPRP | 0.0457 |
| RRIRERPPRLPRPRPRPCSMPRP | -0.0884 |
| RRIRCRPPRLPRPRPRPEFTPRP | -0.194 |
| RRIRYRPPRLPRPRPRPDPDPRP | -0.162 |
| RRIRMRPPRLPRPRPRPKHGPRP | 0.742 |
| RRIRARPPRLPRPRPRPENHPRP | -0.102 |
| RRIRHRPPRLPRPRPRPGLCPRP | 0.101 |
| RRIRRRPPRLPRPRPRPGESPRP | 0.0142 |
| RRIRNRPPRLPRPRPRPLQPPRP | -0.187 |
| RRIRMRPPRLPRPRPRPCKKPRP | 0.106 |
| RRIRVRPPRLPRPRPRPSTTPRP | -0.0817 |
| RRIRGRPPRLPRPRPRPDMLPRP | 0.526 |
| RRIRKRPPRLPRPRPRPMERPRP | -0.024 |
| RRIRWRPPRLPRPRPRPDVEPRP | 0.182 |

| Sequence | shrunken log2 fold change |
| --- | --- |
| RRIRCRPPRLPRPRPRPAILPRP | -0.659 |
| RRIRHRPPRLPRPRPRPFLDPRP | -0.751 |
| RRIRERPPRLPRPRPRPSSAPRP | 0.0581 |
| RRIRTRPPRLPRPRPRPWCGPRP | -0.0198 |
| RRIRPRPPRLPRPRPRPVQFPRP | 0.197 |
| RRIRKRPPRLPRPRPRPDCQPRP | 0.00443 |
| RRIRMRPPRLPRPRPRPTFWPRP | 0.916 |
| RRIRRRPPRLPRPRPRPCKIPRP | 0.0604 |
| RRIRYRPPRLPRPRPRPPVTPRP | -0.0969 |
| RRIRHRPPRLPRPRPRPFVRPRP | -0.073 |
| RRIRGRPPRLPRPRPRPWPNPRP | -0.0526 |
| RRIRVRPPRLPRPRPRPNKVPRP | -0.271 |
| RRIRARPPRLPRPRPRPVCWPRP | 0.894 |
| RRIRGRPPRLPRPRPRPNCCPRP | 0.245 |
| RRIRCRPPRLPRPRPRPQRQPRP | 0.0683 |
| RRIRTRPPRLPRPRPRPMYHPRP | -0.0615 |
| RRIRGRPPRLPRPRPRPMPCPRP | 0.104 |
| RRIRGRPPRLPRPRPRPKHPPRP | 0.608 |
| RRIRKRPPRLPRPRPRPEVSPRP | 0.219 |
| RRIRCRPPRLPRPRPRPPLFPRP | 0.934 |
| RRIRLRPPRLPRPRPRPVRDPRP | -0.105 |
| RRIRCRPPRLPRPRPRPYPSPRP | -0.0149 |
| RRIRERPPRLPRPRPRPRFDPRP | 1.26 |
| RRIRYRPPRLPRPRPRPRPFPRP | -0.104 |
| RRIRMRPPRLPRPRPRPHTCPRP | -0.0858 |

| Sequence | shrunken log2 fold change |
| --- | --- |
| RRIRWRPPRLPRPRPRPEHEPRP | 0.623 |
| RRIRQRPPRLPRPRPRPFTIPRP | 0.0944 |
| RRIRYRPPRLPRPRPRPMFVPRP | -0.228 |
| RRIRQRPPRLPRPRPRPMINPRP | -0.0423 |
| RRIRWRPPRLPRPRPRPISQPRP | -0.392 |
| RRIRWRPPRLPRPRPRPPYGPRP | -0.0783 |
| RRIRLRPPRLPRPRPRPSQEPRP | -0.0518 |
| RRIRNRPPRLPRPRPRPRCKPRP | 0.0547 |
| RRIRYRPPRLPRPRPRPKSFPRP | -0.0139 |
| RRIRERPPRLPRPRPRPVPNPRP | -0.14 |
| RRIRKRPPRLPRPRPRPWKKPRP | 0.0118 |
| RRIRRRPPRLPRPRPRPIISPRP | -0.155 |
| RRIRGRPPRLPRPRPRPKMWPRP | 0.868 |
| RRIRGRPPRLPRPRPRPLHTPRP | 0.851 |
| RRIRKRPPRLPRPRPRPDPLPRP | 0.282 |
| RRIRCRPPRLPRPRPRPWDNPRP | -0.291 |
| RRIRARPPRLPRPRPRPIHNPRP | -0.0611 |
| RRIRQRPPRLPRPRPRPREQPRP | -0.00783 |
| RRIRIRPPRLPRPRPRPWYMPRP | -0.775 |
| RRIRWRPPRLPRPRPRPQGLPRP | 0.00602 |
| RRIRQRPPRLPRPRPRPPTAPRP | 0.504 |
| RRIRYRPPRLPRPRPRPKCLPRP | -0.245 |
| RRIRKRPPRLPRPRPRPATSPRP | 0.288 |
| RRIRSRPPRLPRPRPRPLHKPRP | 0.104 |
| RRIRPRPPRLPRPRPRPVLFPRP | 0.118 |

| Sequence | shrunken log2 fold change |
| --- | --- |
| RRIRHRPPRLPRPRPRPEKSPRP | 0.0275 |
| RRIRVRPPRLPRPRPRPMMKPRP | 0.168 |
| RRIRSRPPRLPRPRPRPNKKPRP | -0.194 |
| RRIRARPPRLPRPRPRPWRHPRP | 0.333 |
| RRIRERPPRLPRPRPRPFGHPRP | -0.224 |
| RRIRNRPPRLPRPRPRPNLGPRP | -0.00992 |
| RRIRLRPPRLPRPRPRPEIIPRP | 0.179 |
| RRIRWRPPRLPRPRPRPRARPRP | 0.773 |
| RRIRVRPPRLPRPRPRPLIRPRP | -0.352 |
| RRIRQRPPRLPRPRPRPYLKPRP | 0.00123 |
| RRIRQRPPRLPRPRPRPKGNPRP | -0.365 |
| RRIRTRPPRLPRPRPRPFSKPRP | 0.0087 |
| RRIRVRPPRLPRPRPRPQIAPRP | -0.0465 |
| RRIRYRPPRLPRPRPRPWQSPRP | -0.121 |
| RRIRSRPPRLPRPRPRPAHVPRP | -0.0302 |
| RRIRLRPPRLPRPRPRPPGCPRP | 0.558 |
| RRIRDRPPRLPRPRPRPRYWPRP | 0.152 |
| RRIRARPPRLPRPRPRPNRPPRP | -0.111 |
| RRIRTRPPRLPRPRPRPAQCPRP | 0.18 |
| RRIRKRPPRLPRPRPRPWNPPRP | 0.159 |
| RRIRVRPPRLPRPRPRPNDSPRP | -0.326 |
| RRIRYRPPRLPRPRPRPNSWPRP | -0.0916 |
| RRIRQRPPRLPRPRPRPKHRPRP | -0.0509 |
| RRIRPRPPRLPRPRPRPKRVPRP | 0.0499 |
| RRIRERPPRLPRPRPRPSWCPRP | -0.0728 |
